Source: paper PMC11272584 (Nature Metabolism, 2024)
Where a chain is given by its changes, count along the chain named.

Experiments:
GIPR I221M (human) = biological target: T1, GIPR I221M (human) (UniProt P48546)
T1 sequence: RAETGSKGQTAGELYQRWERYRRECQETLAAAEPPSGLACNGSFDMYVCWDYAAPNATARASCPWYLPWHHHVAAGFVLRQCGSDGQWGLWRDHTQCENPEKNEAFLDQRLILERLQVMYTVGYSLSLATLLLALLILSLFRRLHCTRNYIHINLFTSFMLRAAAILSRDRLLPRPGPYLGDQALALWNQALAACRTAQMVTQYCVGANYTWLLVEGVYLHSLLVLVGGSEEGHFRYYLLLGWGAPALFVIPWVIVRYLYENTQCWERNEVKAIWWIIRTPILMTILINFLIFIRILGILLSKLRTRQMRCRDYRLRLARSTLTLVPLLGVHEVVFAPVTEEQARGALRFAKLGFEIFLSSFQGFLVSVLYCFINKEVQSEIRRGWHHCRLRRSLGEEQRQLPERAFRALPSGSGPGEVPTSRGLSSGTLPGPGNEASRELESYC

GIPR R43G (human) = biological target: T2, GIPR R43G (human) (UniProt P48546)
T2 sequence: T1 sequence with R22G, M200I

GIPR E463Q (human) = biological target: T3, GIPR E463Q (human) (UniProt P48546)
T3 sequence: T1 sequence with M200I, E442Q

GIPR V99I (human) = biological target: T4, GIPR V99I (human) (UniProt P48546)
T4 sequence: T1 sequence with V78I, M200I

GIPR A150T (human) = biological target: T5, GIPR A150T (human) (UniProt P48546)
T5 sequence: T1 sequence with A129T, M200I

GIPR A185V (human) = biological target: T6, GIPR A185V (human) (UniProt P48546)
T6 sequence: T1 sequence with A164V, M200I

Work on “β-arrestin 2 (Rluc8-Arrestin-3-Sp1) (from UniProt P32121 1-409) (natural protein)” yielded a β-arrestin 2 recruitment (BRET) on stimulation with GIP(1-42): logEC50 (Arrestin) (log M (inferred)) (GIPR I221M (human)) of -9.38, a β-arrestin 2 recruitment (BRET) on stimulation with GIP(1-42): logEC50 (Arrestin) (log M (inferred)) (GIPR R43G (human)) of -9.1 and a β-arrestin 2 recruitment (BRET) on stimulation with GIP(1-42): logEC50 (Arrestin) (log M (inferred)) (GIPR E463Q (human)) of -9.08. It also gave a β-arrestin 2 recruitment (BRET) on stimulation with GIP(1-42): logEC50 (Arrestin) (log M (inferred)) (GIPR V99I (human)) of -8.93, a β-arrestin 2 recruitment (BRET) on stimulation with GIP(1-42): logEC50 (Arrestin) (log M (inferred)) (GIPR A150T (human)) of -8.92 and a β-arrestin 2 recruitment (BRET) on stimulation with GIP(1-42): logEC50 (Arrestin) (log M (inferred)) (GIPR A185V (human)) of -8.96.
